According to patent US20120122128A1 (ALLERGAN, published 2012):

Biological target: T1, SNAP-25206 uncleaved substrate in PC12 cells (rat (PC12 cell line), UniProt P60881 1-206, limits assumed)
T1 construct: also called uncleaved SNAP-25206 substrate; uncleaved SNAP-25
Experiment: immunocytochemistry of PC12 cells +/- GFP-BoNT/A-LC, ascites 1:10

T1 sequence (P60881 whole entry): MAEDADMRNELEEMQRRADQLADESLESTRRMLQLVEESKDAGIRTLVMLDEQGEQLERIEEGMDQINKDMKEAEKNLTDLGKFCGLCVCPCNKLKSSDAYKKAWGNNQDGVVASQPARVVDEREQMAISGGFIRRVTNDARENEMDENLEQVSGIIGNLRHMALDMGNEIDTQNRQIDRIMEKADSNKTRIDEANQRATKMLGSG

B1: α-SNAP-25 monoclonal antibody 3C1A5 (antibody, V domains shown)
VH: VKLQESGAELVKPGASVKISCKASGYTFTDHSIHWVKQKPGQGLEWIGYLFPGNGNFEYNEKFKGKATLTADKSSSTVYMYLNSLTSEDSAVYFCKRMGYWGQGTTVTVSS
VL: DIKMTQSPSSMYASLGERVTITCKASQDIKSYLSWYQQKPWKSPKTLIYYATSLADGVPSRFSGSGSGQDYSLTISSLESDDTATYYCLQHGESPFTFGSGTKLEIKR
binding result: no binding
